Laboratory results as given in patent US20210147513A1 (published 2021).
Numbering of substitutions follows the chain as printed.

B1: 3B12 scFvFc (scFv, V domains shown)
VH: QVQLVQSGAEVKKPGSSVKVSCKASGGTFSSYAISWVRQAPGQGLEWMGGIIPIFGTANYAQKFQGRVTITADKSTSTAYMELSSLRSEDTAVYYCARASYCSTTSCASGAFDIWGQGTLVTVSS
VL: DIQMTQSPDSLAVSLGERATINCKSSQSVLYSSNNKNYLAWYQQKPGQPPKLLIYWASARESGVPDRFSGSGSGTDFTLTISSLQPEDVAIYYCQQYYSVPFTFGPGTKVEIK
B2: 3B11 IgG1 (antibody, V domains shown)
VH: B1 VH with A99V, S100G, T104S, A108H, S109I, L120T
VL: ETTLTQSPGTLSLSPGERATLSCRASQSVSSSIAWYQQKPGQAPRLLMFDSSTRATGIPDRFSGSGSGTDFTLNISSLEPEDFAVYYCQQYSSSPYTFGQGTKLEIK
B3: 1F8 IgG1 (antibody, V domains shown)
VH: EVQLVQSGAEVKEPGSSVKVSCKASGGTFGSYAINWVRQAPGQRLEWMGWIDAANGNTKYSQKFQGRVTITGDTSASTAYMELSSLRSEDTAVYYCARDRWMTTRAFDIWGQGTMVTVSS
VL: QPVLTQPPSASGTPGQRVTISCSGSSSNIGSNYVFWYQQLPGMAPKLLISRNNQRPSGVPDRFSGSKSGTSASLAISGPQSEDEADYYCAAWDDSLRGPVFGGGTRVTVL
B4: 3A1 scFvFc (scFv, V domains shown)
VH: QVQLVQSGAEVKKPGSSVKVSCKASGGTFSSYAVSWVRQAPGQGLEWVGRIIPIFGKANYAQKFQGRVTITADKSTSTAYMELSSLRPEDTAVYYCARDQGISANFKDAFDIWGQGTTVTVSS
VL: ETTLTQSPATLSVSPGERATLSCRASESVGSNLAWYQQKPGQAPSLLIYGASTRATGIPDRFSGSGSGTDFTLTISSLQSEDFAAYYCQQYNNWPLTFGPGTKVEIK
B5: 3A1 IgG1 (antibody, V domains shown)
VH: B4 VH
VL: B4 VL

Key:
[1] = molecular target: T1, S protein of live MERS-CoV EMC/2012 (MERS-CoV); test: cell-based or functional assay
T1 chain: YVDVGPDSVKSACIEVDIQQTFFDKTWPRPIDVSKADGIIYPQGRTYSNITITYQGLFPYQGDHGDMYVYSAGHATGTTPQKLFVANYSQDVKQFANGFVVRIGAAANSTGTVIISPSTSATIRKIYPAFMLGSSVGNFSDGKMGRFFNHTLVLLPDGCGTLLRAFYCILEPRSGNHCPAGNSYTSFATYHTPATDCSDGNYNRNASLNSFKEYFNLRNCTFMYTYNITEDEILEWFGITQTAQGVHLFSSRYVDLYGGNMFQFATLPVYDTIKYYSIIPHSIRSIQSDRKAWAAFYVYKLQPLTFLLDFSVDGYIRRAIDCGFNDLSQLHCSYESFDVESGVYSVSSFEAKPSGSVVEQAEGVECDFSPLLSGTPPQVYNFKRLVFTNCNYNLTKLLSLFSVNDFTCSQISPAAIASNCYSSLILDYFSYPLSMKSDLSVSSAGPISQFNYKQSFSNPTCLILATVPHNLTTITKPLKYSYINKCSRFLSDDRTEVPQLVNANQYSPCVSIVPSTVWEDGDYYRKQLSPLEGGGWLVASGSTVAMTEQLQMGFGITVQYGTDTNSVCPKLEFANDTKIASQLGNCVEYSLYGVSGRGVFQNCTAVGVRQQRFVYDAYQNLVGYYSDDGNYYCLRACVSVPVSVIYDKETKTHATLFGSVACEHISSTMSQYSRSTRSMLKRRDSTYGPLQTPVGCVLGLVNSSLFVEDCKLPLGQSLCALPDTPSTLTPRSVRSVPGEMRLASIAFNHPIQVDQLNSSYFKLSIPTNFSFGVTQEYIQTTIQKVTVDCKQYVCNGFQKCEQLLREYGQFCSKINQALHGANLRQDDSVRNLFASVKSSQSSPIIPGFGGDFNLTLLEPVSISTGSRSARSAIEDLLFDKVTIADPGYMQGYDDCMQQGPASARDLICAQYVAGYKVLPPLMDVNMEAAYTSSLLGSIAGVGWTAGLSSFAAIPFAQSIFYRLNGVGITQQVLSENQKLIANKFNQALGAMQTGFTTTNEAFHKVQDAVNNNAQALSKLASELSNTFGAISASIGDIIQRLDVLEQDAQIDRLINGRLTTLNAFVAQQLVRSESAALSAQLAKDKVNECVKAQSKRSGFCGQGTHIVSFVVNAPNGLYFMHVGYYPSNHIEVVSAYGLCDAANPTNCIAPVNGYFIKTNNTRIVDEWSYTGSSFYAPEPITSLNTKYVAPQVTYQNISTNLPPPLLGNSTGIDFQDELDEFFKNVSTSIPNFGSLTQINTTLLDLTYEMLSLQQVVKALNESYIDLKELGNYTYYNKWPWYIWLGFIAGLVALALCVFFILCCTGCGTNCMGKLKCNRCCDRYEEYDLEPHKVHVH

[2] = molecular target: S protein of live MERS-CoV EMC/2012 (MERS-CoV); test: cell-based or functional assay; remark: listed apart in the source

Binder | IC50 (µg/ml), PRNT50 live virus, wt. [1] [µg/mL] | IC50 (µg/ml), PRNT50 live virus, wt. [2] [µg/mL]
B1 | 1.25 | –
B2 | – | 3.5
B3 | – | 4.05
B4 | – | 1.46
B5 | – | 4.5
